From paper PMC3787845

Tests used:
[1] = molecular target: His6-ChpT (Caulobacter crescentus); assay: SEC
[2] = molecular target: His6-ChpT-A41R (Caulobacter crescentus); assay: SEC
[3] = molecular target: His6-ChpT-D47A (Caulobacter crescentus); assay: SEC
[4] = molecular target: His6-ChpT-D60A (Caulobacter crescentus); assay: SEC
[5] = molecular target: His6-ChpT-G45R (Caulobacter crescentus); assay: SEC
[6] = molecular target: His6-ChpT-L48M (Caulobacter crescentus); assay: SEC
[7] = molecular target: His6-ChpT-L64D (Caulobacter crescentus); assay: SEC
[8] = molecular target: His6-ChpT-N63R (Caulobacter crescentus); assay: SEC
[9] = molecular target: His6-ChpT-S40V (Caulobacter crescentus); assay: SEC
[10] = molecular target: His6-ChpT-S44Y (Caulobacter crescentus); assay: SEC
[11] = molecular target: His6-ChpT-A41R (Caulobacter crescentus); assay: SPR

**Q.** His6-ChpT (natural protein) was tested. Which stoichiometry N [1] did it give?
**A.** 2

**Q.** With His6-ChpT-A41R (natural protein) as the molecule, how does the stoichiometry N [2] read?
**A.** 2

**Q.** For His6-ChpT-D47A (natural protein), which stoichiometry N [3] is on record?
**A.** 2

**Q.** For His6-ChpT-D60A (natural protein), which stoichiometry N [4] is on record?
**A.** 2

**Q.** How did the stoichiometry N [5] turn out when His6-ChpT-G45R (natural protein) was run?
**A.** 2

**Q.** How did the stoichiometry N [6] turn out when His6-ChpT-L48M (natural protein) was run?
**A.** 2

**Q.** Which stoichiometry N [7] does the source give for His6-ChpT-L64D (natural protein) here?
**A.** 2

**Q.** For His6-ChpT-N63R (natural protein), which stoichiometry N [8] is on record?
**A.** 2

**Q.** His6-ChpT-S40V (natural protein) was tested. Which stoichiometry N [9] did it give?
**A.** 2

**Q.** His6-ChpT-S44Y (natural protein) was tested. Which stoichiometry N [10] did it give?
**A.** 2

B1: CckA receiver domain (CckA-RD, amino acids 571–691) (domain or fragment)
chain: GRILFVEDEDAVRSVAARLLRARGYEVLEAADGEEALIIAEENAGTIDLLISDVIMPGIDGPTLLKKARGYLGTAPVMFISGYAEAEFSDLLEGETGVTFLPKPIDIKTLAERVKQQLQAA
**Q.** Which Kd [11] does the source give for B1 here?
**A.** 397 µM
